In patent publication US20150335669A1 (SAMSUNG ELECTRONICS, published 2015):
One block for each binder: values may come before it.

Key:
[1] = target: T1, human c-Met/Fc fusion protein (R&D Systems) (human, UniProt P08581 25-932); assay: SPR, Biacore T100; antibody captured by human Fab binder on CM5 chip, c-Met-Fc injected
T1 construct: Bought reagent; treated here as the same reagent; also called c-Met-Fc (#358-MT/CF, R&D Systems); human c-Met/Fc protein; not shown: Fc part of the bought fusion protein
Procedure: To confirm whether the prepared PEG-introduced antibodies containing PEG with various molecular weights can maintain the binding affinity to the antigen, the binding affinity of the prepared PEG-introduced antibodies to c-Met was measured using Biacore T100(GE) and compared with that of an antibody with no PEG (Ab).
In particular, human Fab binder (GE Healthcare) was fixed on a surface of CM5 chip (#BR-1005-30, GE) according to the manufacturer's manual. About 90 to 120 Ru of each of the PEG-introduced antibodies was captured, and c-Met-Fc (#358-MT/CF, R&D Systems) was injected at various concentrations into the captured PEG-introduced antibody. 10 mM Glycine-HCl (pH 1.5) solution was injected thereto to regenerate the surface. In order to measure affinity, the data obtained from this experiment was fitted using BIAevaluation software (GE Healthcare, Biacore T100 evaluation software).

[2] = target: T1, human c-Met/Fc fusion protein (R&D …); assay: ELISA, human c-Met/Fc fusion protein coated on the plate, hybridoma culture supernatant
Procedure: The hybridoma cell culture obtained in Reference Example 1.1.2 was added in an amount of 50 μL to each well of the plates and incubated for 1 hour. The cells remaining unreacted were washed out with a sufficient amount of Tris-buffered saline and Tween 20 (TBST). Goat anti-mouse IgG-horseradish peroxidase (HRP) was added to the plates and incubated for 1 hour at room temperature. The plates were washed with a sufficient amount of TBST, followed by reacting the peroxidase with a substrate (OPD). Absorbance at 450 nm was measured on an ELISA reader.

T1 sequence (P08581 25-932 limits assumed): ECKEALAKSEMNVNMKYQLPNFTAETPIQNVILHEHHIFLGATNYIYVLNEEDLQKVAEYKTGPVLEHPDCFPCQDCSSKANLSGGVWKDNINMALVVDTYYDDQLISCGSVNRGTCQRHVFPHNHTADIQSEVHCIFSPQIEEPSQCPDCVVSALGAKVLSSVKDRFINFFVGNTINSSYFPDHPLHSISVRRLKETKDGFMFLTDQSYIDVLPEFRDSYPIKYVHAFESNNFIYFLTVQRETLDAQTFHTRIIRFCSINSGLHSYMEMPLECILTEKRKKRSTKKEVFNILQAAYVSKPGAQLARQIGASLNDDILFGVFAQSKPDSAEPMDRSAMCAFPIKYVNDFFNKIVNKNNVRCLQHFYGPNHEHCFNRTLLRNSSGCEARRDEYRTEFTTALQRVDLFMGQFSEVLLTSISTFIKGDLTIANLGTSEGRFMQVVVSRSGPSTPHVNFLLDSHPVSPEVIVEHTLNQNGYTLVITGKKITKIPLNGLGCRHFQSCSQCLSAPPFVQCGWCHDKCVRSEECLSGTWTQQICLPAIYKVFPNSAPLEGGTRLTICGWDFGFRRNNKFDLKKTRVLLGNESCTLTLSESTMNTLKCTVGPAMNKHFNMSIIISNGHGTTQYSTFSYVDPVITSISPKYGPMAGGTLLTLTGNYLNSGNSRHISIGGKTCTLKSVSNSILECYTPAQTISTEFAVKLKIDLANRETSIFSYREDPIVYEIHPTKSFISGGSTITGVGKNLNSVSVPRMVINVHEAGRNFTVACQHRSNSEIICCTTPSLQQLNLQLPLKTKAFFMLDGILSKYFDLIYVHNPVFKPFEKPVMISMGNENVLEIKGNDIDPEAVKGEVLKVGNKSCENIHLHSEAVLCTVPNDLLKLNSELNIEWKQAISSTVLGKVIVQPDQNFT

- Kd [1]: 0.0619 nM
B1: PEG-introduced antibody L3-1Y/IgG2 with 30 kDa polyethyleneglycol (antibody, V domains shown)
VH: EVQLVESGGGLVQPGGSLRLSCAASGFTFTDYYMSWVRQAPGKGLEWLGFIRNKANGYTTEYSASVKGRFTISRDNSKNTLYLQMNSLRAEDTAVYYCARDNWFAYWGQGTLVTVSS
VL: DIQMTQSPSSLSASVGDRVTITCKSSQSLLASGNQNNYLAWYQQKPGKAPKMLIIWASTRVSGVPSRFSGSGSGTDFTLTISSLQPEDFATYYCQQSYSRPYTFGQGTKVEIKR
modifications: see heavy chain: the PEG may stand at the N-terminus of a light chain instead; 30 kDa methoxypolyethyleneglycol at the N-terminus of the antibody (N-terminus of a heavy chain or of a light chain; which one is not resolved); mono-PEG per paragraph 213
notes: also called 30kPEG Ab; mono-PEG antibody (30 kDa)

- Kd [1]: 0.0823 nM
B2: anti-c-Met antibody L3-1Y-IgG2 (huAbF46-H4-A1 (IgG2 Fc)) (antibody, V domains shown)
VH: B1 VH
VL: B1 VL
notes: also called antibody with no PEG

- Kd [1]: 0.0729 nM
B3: PEG-introduced antibody L3-1Y/IgG2 with 20 kDa polyethyleneglycol (antibody, V domains shown)
VH: B1 VH
VL: B1 VL
modifications: see heavy chain: the PEG may stand at the N-terminus of a light chain instead; 20 kDa methoxypolyethyleneglycol at the N-terminus of the antibody (N-terminus of a heavy chain or of a light chain; which one is not resolved); mono-PEG per paragraph 213
notes: also called 20kPEG Ab; mono-PEG antibody (20 kDa)

- Kd [1]: 0.0859 nM
B4: PEG-introduced antibody L3-1Y/IgG2 with 10 kDa polyethyleneglycol (antibody, V domains shown)
VH: B1 VH
VL: B1 VL
modifications: see heavy chain: the PEG may stand at the N-terminus of a light chain instead; 10 kDa methoxypolyethyleneglycol at the N-terminus of the antibody (N-terminus of a heavy chain or of a light chain; which one is not resolved); mono-PEG per paragraph 213
notes: also called 10kPEG Ab; mono-PEG antibody (10 kDa)

- binding result [2]: binds
B5: AbF46, mouse monoclonal antibody to c-Met (hybridoma KCLRF-BP-00220) (antibody, V domains shown)
VH: EVKLVESGGGLVQPGGSLRLSCATSGFTFTDYYMSWVRQPPGKALEWLGFIRNKANGYTTEYSASVKGRFTISRDNSQSILYLQMDTLRAEDSATYYCARDNWFAYWGQGTLVTVSA
VL: DILMTQSPSSLTVSAGEKVTMSCKSSQSLLASGNQNNYLAWHQQKPGRSPKMLIIWASTRVSGVPDRFIGSGSGTDFTLTINSVQAEDLAVYYCQQSYSAPLTFGAGTKLELK
notes: Tested as hybridoma culture supernatant in the selection ELISA; also called mouse antibody AbF46
